# IntAct's records for PubMed 18369319
# B1: Beta-adrenergic receptor kinase 1 (Homo sapiens), P25098 (parent)
# chain: MADLEAVLADVSYLMAMEKSKATPAARASKKILLPEPSIRSVMQKYLEDRGEVTFEKIFSQKLGYLLFRDFCLNHLEEARPLVEFYEEIKKYEKLETEEERVARSREIFDSYIMKELLACSHPFSKSATEHVQGHLGKKQVPPDLFQPYIEEICQNLRGDVFQKFIESDKFTRFCQWKNVELNIHLTMNDFSVHRIIGRGGFGEVYGCRKADTGKMYAMKCLDKKRIKMKQGETLALNERIMLSLVSTGDCPFIVCMSYAFHTPDKLSFILDLMNGGDLHYHLSQHGVFSEADMRFYAAEIILGLEHMHNRFVVYRDLKPANILLDEHGHVRISDLGLACDFSKKKPHASVGTHGYMAPEVLQKGVAYDSSADWFSLGCMLFKLLRGHSPFRQHKTKDKHEIDRMTLTMAVELPDSFSPELRSLLEGLLQRDVNRRLGCLGRGAQEVKESPFFRSLDWQMVFLQKYPPPLIPPRGEVNAADAFDIGSFDEEDTKGIKLLDSDQELYRNFPLTISERWQQEVAETVFDTINAETDRLEARKKAKNKQLGHEEDYALGKDCIMHGYMSKMGNPFLTQWQRRYFYLFPNRLEWRGEGEAPQSLLTMEEIQSVEETQIKERKCLLLKIRGGKQFILQCDSDPELVQWKKELRDAYREAQQLVQRVPKMKNKPRSPVVELSKVPLVQRGSANGL
# partner: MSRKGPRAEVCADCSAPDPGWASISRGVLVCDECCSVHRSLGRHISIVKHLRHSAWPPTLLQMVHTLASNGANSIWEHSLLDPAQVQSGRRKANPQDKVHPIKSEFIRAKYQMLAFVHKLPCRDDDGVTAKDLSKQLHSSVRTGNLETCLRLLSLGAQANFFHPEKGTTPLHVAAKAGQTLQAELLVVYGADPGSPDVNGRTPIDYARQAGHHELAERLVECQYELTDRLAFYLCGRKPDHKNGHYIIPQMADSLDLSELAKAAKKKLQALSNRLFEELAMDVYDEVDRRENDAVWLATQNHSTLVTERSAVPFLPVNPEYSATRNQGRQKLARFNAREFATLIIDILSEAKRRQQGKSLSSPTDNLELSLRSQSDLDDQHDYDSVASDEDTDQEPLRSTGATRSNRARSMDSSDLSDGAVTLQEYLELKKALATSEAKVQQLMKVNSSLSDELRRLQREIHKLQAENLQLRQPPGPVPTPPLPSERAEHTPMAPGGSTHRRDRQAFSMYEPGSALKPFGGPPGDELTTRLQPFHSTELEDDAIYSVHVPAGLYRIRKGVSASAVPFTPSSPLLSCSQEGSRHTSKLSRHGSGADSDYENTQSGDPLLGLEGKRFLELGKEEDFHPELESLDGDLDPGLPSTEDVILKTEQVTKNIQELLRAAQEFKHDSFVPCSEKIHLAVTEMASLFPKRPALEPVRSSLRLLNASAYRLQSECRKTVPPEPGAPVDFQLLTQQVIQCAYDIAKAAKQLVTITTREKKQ
# Variants of: B1
# Conditions: with git1_human GIT1, Q9Y2X7
row,Variant,effect of a mutation on the interaction
1,Y86D;Y92D,increasing interaction

# Variants of: B1
# Conditions: with git1_human GIT1, Q9Y2X7
# Remark: another data set of the same source
row,Variant,effect of a mutation on the interaction
1,S670D,disrupting interaction

# Variants of: B1
# Conditions: with git1_human GIT1, Q9Y2X7
# Remark: another data set of the same source
row,Variant,effect of a mutation on the interaction
1,S670A,increasing interaction

# Variants of: B1
# Conditions: with git1_human GIT1, Q9Y2X7
# Remark: another data set of the same source
row,Variant,effect of a mutation on the interaction
1,Y13F;Y86F;Y92F,disrupting interaction
